For data set [1], the system named is HCT116 xenografts. The data set is described as follows: HCT116 xenograft mouse model, antitumor activity. It counts as in vivo, nude mouse.
In data set [2] the test system is BMDM. Description: MTT assay of cell viability, bone marrow-derived macrophages (BMDM). It counts as cell-based, mouse. The settings on record: 20 μg/ml. How it is done:
FIGS. 2A, 2B, 2C, 2D and 2E show the design and expression of an ATRAM-conjugated multifunctional GRA8 peptide (rATRAM-G8-M/AS)-based protein [(A) Subcellular fractionation of 293T cells was performed by expression of GST-GRA8 WT or incubation of WT rGRA8 with (1 μg/ml) BMDM and treatment with several Tat-GRA8 peptides for 6 hours (10 μM). Mitochondrial and cytosolic fractions were fractionated and analyzed for expression of GST by IB. The purity of the fractions was confirmed by blotting for VDAC (mitochondrial protein) and actin (cytosolic protein). (B) A mammalian GST-GRA8 construct was transfected into 293T cells for 12 hours with V5-ATP5A1 or Flag-SIRT3, and treated with several Tat-GRA8 peptides (10 μM) for 6 hours. The 293T cells were used for GST pulldown, followed by IB with αV5 or αFlag. WCL was used for IB with αGST, αV5, αFlag or αActin. […] (D) 6×His-rATRAM-GRA8-M/AS purified with bacteria and its mutants were analyzed by Coomassie blue staining (left) or αHis immunoblotting (IB; right). (E) BMDM was incubated with rATRAM-GRA8-M/AS and its mutant (20 μg/ml) for indicated times, and cell viability was then measured by an MMT assay. […]
As described in Non-Patent Document 1, the cell viability for a non-treated group was measured by an MTT assay. […] Using a UV/VIS spectrophotometer, each well of a plate was measured at 540 nm to measure relative cell viability.
A general note: Tetrazolium dyes change colour on reduction, which living cells bring about.

This is an account of results in patent US11492376B2, “Toxoplasma gondii GRA8-derived recombinant peptides and composition for preventing or treating cancer comprising the same” (Industry—University Cooperation Foundation Hanyang …, priority 2019, dated 2022).

B1: (GLAGLAGLLGLEGLLGLPLGLLEGLWLGLELEGN)2-GG-ATATTTTTTR-GG-YRFTVQTTQN (protein)
chain: GLAGLAGLLGLEGLLGLPLGLLEGLWLGLELEGNGLAGLAGLLGLEGLLGLPLGLLEGLWLGLELEGNGGATATTTTTTRGGYRFTVQTTQN
modifications: His tag; rATRAM-G8-M/AS
For the molecule B1, the “growth of tumors which started to initially grow” value in data set [1] (20 μg/kg, intraperitoneal injection (FIG. 6A)) is reported as “inhibited the growth of tumors”. Besides, the “growth of actively growing tumors” value in data set [1] (20 μg/kg, intraperitoneal injection (FIG. 6B)) was “inhibited the growth”. In addition, the “fold improvement of IC50 compared with rGRA8 (anti-tumor activity)” value was 500 fold in data set [1] (HCT116 xenograft) and “approximately 500 fold” in data set [1] (HCT116 xenograft, listed as rATRAM-G8-M/AS). For the same molecule, the “IC50 (antitumor activity in xenograft)” value in data set [1] (HCT116 xenograft mice, intraperitoneal) is 20 µg/kg. Besides, the “tumor size and tumor growth” value in data set [1] (HCT116 xenograft, effect dependent on PKCα, SIRT3, ATP5A1 and acetylation state of K506 and K531) is “a decrease in tumor size and delayed tumor growth”. In addition, the “cytotoxicity in macrophages compared with vector control” value in data set [2] was “No significant cytotoxic differences”.
